Earlier results on one molecule are cited in patent publication US9545449B2, “Site-specific labeling and targeted delivery of proteins for the treatment of cancer” (Advanced Proteome Therapeutics Inc., priority 2012, dated 2017).

For this data set the following is noted: binding to phosphatidylserine; from Thiagarajan and Tait, J. Biol. Chem. 265:17420-17423 (1990); read-out: Kd (affinity for PS).

B1: Annexin V: human annexin V (SEQ ID NO:1) (Accession P08758); phosphatidylserine-binding protein (protein, listed as Homo sapiens)
chain: MAQVLRGTVTDFPGFDERADAETLRKAMKGLGTDEESILTLLTSRSNAQRQEISAAFKTLFGRDLLDDLKSELTGKFEKLIVALMKPSRLYDAYELKHALKGAGTNEKVLTEIIASRTPEELRAIKQVYEEEYGSSLEDDVVGDTSGYYQRMLVVLLQANRDPDAGIDEAQVEQDAQALFQAGELKWGTDEEKFITIFGTRSVSHLRKVFDKYMTISGFQIEETIDRETSGNLEQLLLAVVKSIRSIPAYLAETLYYAMKGAGTDDHTLIRVMVSRSEIDLFNIRKEFRKNFATSLYSMIKGDTSGDYKKALLLLCGEDD
In general, Kd refers to a measure of binding affinity in units of concentration. For B1, the Kd is 1.7 nM.
